± gives the uncertainty stated by the source.
B1: SWI/SNF complex subunit SMARCC1, residues 620 to 663; numbered along this chain, Q92922 (parent)
chain: GREWTEQETLLLLEALEMYKDDWNKVSEHVGSRTQDECILHFLR

Variants of: B1
Assay: abundance fitness (aPCA) (normalised: wild type 0, dead -1); higher = more abundant; growth selection in yeast, the domain comes from the species named
Conditions: Homo sapiens

| Variant | abundance fitness |
| --- | --- |
| GREWTEQETLLLLEALEMYKDDWNCVSEHVGSRTQDECILHFLR [K25C] | -0.064 ± 0.075 |
| GREWTEQETLLLLEALEMYKDDWNIVSEHVGSRTQDECILHFLR [K25I] | -0.426 ± 0.13 |
| GREWTEQETLLLLEALEMYKDDWNLVSEHVGSRTQDECILHFLR [K25L] | 0.072 ± 0.056 |
| GREWTEQETLLLLEALEMYKDDWNPVSEHVGSRTQDECILHFLR [K25P] | -0.377 ± 0.083 |
| GREWTEQETLLLLEALEMYKDDWNNVSEHVGSRTQDECILHFLR [K25N] | -0.245 ± 0.22 |
| GREWTEQETLLLLEALEMYKDDWNEVSEHVGSRTQDECILHFLR [K25E] | -0.14 ± 0.11 |
| GREWTEQETLLLLEALEMYKDDWNMVSEHVGSRTQDECILHFLR [K25M] | 0.194 ± 0.16 |
| GREWTEQETLLLLEALEMYKDDWNAVSEHVGSRTQDECILHFLR [K25A] | 0.091 ± 0.061 |
| GREWTEQETLLLLEALEMYKDDWNGVSEHVGSRTQDECILHFLR [K25G] | -0.038 ± 0.055 |
| GREWTEQETLLLLEALEMYKDDWNHVSEHVGSRTQDECILHFLR [K25H] | -0.045 ± 0.096 |
| GREWTEQETLLLLEALEMYKDDWNDVSEHVGSRTQDECILHFLR [K25D] | -0.331 ± 0.11 |
| GREWTEQETLLLLEALEMLKDDWNKVSEHVGSRTQDECILHFLR [Y19L] | -0.776 ± 0.19 |
| GREWTEQETLLLLEALEMRKDDWNKVSEHVGSRTQDECILHFLR [Y19R] | -0.55 ± 0.086 |
| GREWTEQETLLLLEALEMEKDDWNKVSEHVGSRTQDECILHFLR [Y19E] | -0.216 ± 0.13 |
| GREWTEQETLLLLEALEMQKDDWNKVSEHVGSRTQDECILHFLR [Y19Q] | -0.423 ± 0.13 |
| GREWTEQETLLLLEALEMIKDDWNKVSEHVGSRTQDECILHFLR [Y19I] | -0.693 ± 0.15 |
| GREWTEQETLLLLEALEMMKDDWNKVSEHVGSRTQDECILHFLR [Y19M] | -0.62 ± 0.16 |
| GREWTEQETLLLLEALEMHKDDWNKVSEHVGSRTQDECILHFLR [Y19H] | 0.062 ± 0.14 |
| GREWTEQETLLLLEALEMDKDDWNKVSEHVGSRTQDECILHFLR [Y19D] | -0.218 ± 0.15 |
| GREWTEQETLLLLEALEMCKDDWNKVSEHVGSRTQDECILHFLR [Y19C] | 0.09 ± 0.099 |

| Variant | abundance fitness |
| --- | --- |
| GREWTEQETLLLLEALEMSKDDWNKVSEHVGSRTQDECILHFLR [Y19S] | -0.362 ± 0.097 |
| GREWTEQETLLLLEALEMVKDDWNKVSEHVGSRTQDECILHFLR [Y19V] | -0.69 ± 0.18 |
| GREWTEQETLLLLEALEMPKDDWNKVSEHVGSRTQDECILHFLR [Y19P] | -0.952 ± 0.19 |
| GREWTEQETLLLLEALEMKKDDWNKVSEHVGSRTQDECILHFLR [Y19K] | -0.263 ± 0.14 |
| GREWTEQETLLLLEALEMTKDDWNKVSEHVGSRTQDECILHFLR [Y19T] | -0.298 ± 0.087 |
| GREWTEQETLLLLEALEMGKDDWNKVSEHVGSRTQDECILHFLR [Y19G] | -0.108 ± 0.059 |
| GREWTEQETLLLLEALEMWKDDWNKVSEHVGSRTQDECILHFLR [Y19W] | -0.081 ± 0.075 |
| GREWTEQETLLLLEALEMYKDDWLKVSEHVGSRTQDECILHFLR [N24L] | 0.013 ± 0.056 |
| GREWTEQETLLLLEALEMYKDDWYKVSEHVGSRTQDECILHFLR [N24Y] | -0.097 ± 0.088 |
| GREWTEQETLLLLEALEMYKDDWQKVSEHVGSRTQDECILHFLR [N24Q] | 0.173 ± 0.11 |
| GREWTEQETLLLLEALEMYKDDWEKVSEHVGSRTQDECILHFLR [N24E] | 0.042 ± 0.096 |
| GREWTEQETLLLLEALEMYKDDWDKVSEHVGSRTQDECILHFLR [N24D] | 0.024 ± 0.096 |
| GREWTEQETLLLLEALEMYKDDWAKVSEHVGSRTQDECILHFLR [N24A] | 0.027 ± 0.062 |
| GREWTEQETLLLLEALEMYKDDWWKVSEHVGSRTQDECILHFLR [N24W] | -0.168 ± 0.079 |
| GREWTEQETLLLLEALEMYKDDWIKVSEHVGSRTQDECILHFLR [N24I] | -0.13 ± 0.16 |
| GREWTEQETLLLLEALEMYKDDWGKVSEHVGSRTQDECILHFLR [N24G] | 0.075 ± 0.061 |
| GREWTEQETLLLLEALEMYKDDWRKVSEHVGSRTQDECILHFLR [N24R] | -0.032 ± 0.057 |
| GREWTEQETLLLLEALEMYKDDWMKVSEHVGSRTQDECILHFLR [N24M] | 0.065 ± 0.084 |
| GREWTEQETLLLLEALEMYKDDWTKVSEHVGSRTQDECILHFLR [N24T] | -0.029 ± 0.069 |
| GREWTEQETLLLLEALEMYKDDWSKVSEHVGSRTQDECILHFLR [N24S] | 0.119 ± 0.052 |

| Variant | abundance fitness |
| --- | --- |
| GREWTEQETLLLLEALEMYKDDWPKVSEHVGSRTQDECILHFLR [N24P] | 0.045 ± 0.072 |
| GREWTEQETLLLLEALEMYKDDWKKVSEHVGSRTQDECILHFLR [N24K] | 0.155 ± 0.084 |
| GREWTEQETLLLLEALEMYKDDWCKVSEHVGSRTQDECILHFLR [N24C] | -0.001 ± 0.077 |
| GREWTEQETLLLLEALEMYKDDWHKVSEHVGSRTQDECILHFLR [N24H] | 0.006 ± 0.078 |
| GREWTEQETLLLLEALEVYKDDWNKVSEHVGSRTQDECILHFLR [M18V] | -0.002 ± 0.067 |
| GREWTEQETLLLLEALEYYKDDWNKVSEHVGSRTQDECILHFLR [M18Y] | -0.129 ± 0.13 |
| GREWTEQETLLLLEALEQYKDDWNKVSEHVGSRTQDECILHFLR [M18Q] | 0.056 ± 0.077 |
| GREWTEQETLLLLEALEPYKDDWNKVSEHVGSRTQDECILHFLR [M18P] | -0.583 ± 0.41 |
| GREWTEQETLLLLEALETYKDDWNKVSEHVGSRTQDECILHFLR [M18T] | 0.1 ± 0.17 |
| GREWTEQETLLLLEALEKYKDDWNKVSEHVGSRTQDECILHFLR [M18K] | -0.076 ± 0.089 |
| GREWTEQETLLLLEALESYKDDWNKVSEHVGSRTQDECILHFLR [M18S] | -0.168 ± 0.076 |
| GREWTEQETLLLLEALENYKDDWNKVSEHVGSRTQDECILHFLR [M18N] | -0.018 ± 0.25 |
| GREWTEQETLLLLEALEWYKDDWNKVSEHVGSRTQDECILHFLR [M18W] | -0.2 ± 0.11 |
| GREWTEQETLLLLEALEIYKDDWNKVSEHVGSRTQDECILHFLR [M18I] | -0.264 ± 0.23 |
| GREWTEQETLLLLEALELYKDDWNKVSEHVGSRTQDECILHFLR [M18L] | 0.063 ± 0.067 |
| GREWTEQETLLLLEALERYKDDWNKVSEHVGSRTQDECILHFLR [M18R] | 0.142 ± 0.069 |
| GREWTEQETLLLLEALEMYKDTWNKVSEHVGSRTQDECILHFLR [D22T] | -0.581 ± 0.33 |
| GREWTEQETLLLLEALEMYKDHWNKVSEHVGSRTQDECILHFLR [D22H] | -0.264 ± 0.14 |

Source: the Human Domainome abundance scans (Beltran et al. 2025)
